Where no end group is shown, it is not given here. [ ]: non-standard residue; d: D form. Nle = CCCC[C@H](N)C(=O)O

The target in one assay is T1, CCR2 (Homo sapiens, UniProt P41597).
T1 construct: endogenous in cells; host or cells: THP-1
T1 sequence (P41597 1-360 isoform P41597-2): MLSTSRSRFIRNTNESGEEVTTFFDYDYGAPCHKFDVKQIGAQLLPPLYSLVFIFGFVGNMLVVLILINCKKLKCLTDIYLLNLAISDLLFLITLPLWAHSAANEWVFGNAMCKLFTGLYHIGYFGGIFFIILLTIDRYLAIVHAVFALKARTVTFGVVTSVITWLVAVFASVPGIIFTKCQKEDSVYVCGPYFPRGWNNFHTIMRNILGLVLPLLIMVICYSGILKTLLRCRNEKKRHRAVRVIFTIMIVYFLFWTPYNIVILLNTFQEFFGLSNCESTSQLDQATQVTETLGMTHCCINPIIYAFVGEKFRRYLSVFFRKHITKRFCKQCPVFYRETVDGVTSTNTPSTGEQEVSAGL
Briefly: CCR2 inhibitory potency assay, calcium flux method, THP-1 cells stimulated with 100 nM CCL2. It counts as cell-based. The following applies: FIG. 5; calcium flux, THP-1 cells; read-out: IC50 (compiled data from four experiments, mean pIC50) (converted). How it is done: CCR2 inhibitory potency assay was determined using the calcium flux method.
Ca^2+ flux measurements were performed using an FDSS micro-cell device ([…]). On the day of the experiment, THP-1 cells were seeded 20000 cells/well) to wells of black-walled clear-bottom 384-well plates.
THP-1 cells were loaded with a calcium-sensitive fluorescent dye (Screen Quest™ Fluo-8 No Wash Calcium Assay Kit, AAT Bioquest) according to the manufacturer's instructions, then a first addition of either test sample dilutions or vehicle alone were added. 5 minutes later, cells were stimulated with 100 nM CCL2.
On the technique in general: Calcium assays in cells follow changes in intracellular calcium, usually with a dye or a luminescent sensor.
On to `CC(C)(C)N1CCN[C@@H](C(=O)N2CCN(C(=O)Nc3ccc(Cl)c(F)c3)CC2)C1` [AZD2423, reference compound], for which the IC50 is 6 nM.

Regarding `CC(=O)N[C@@H]1C[C@H](NC(C)(C)C)CC[C@@H]1N1CC[C@H](Nc2ncnc3cc(C(C)(C)C)nn23)C1=O` [BMS-813160, reference compound], the half-inhibitory concentration (IC50) was 9.8 nM.

For the compound `Cc1cnc(C(=O)c2ncnc3[nH]ccc23)c(NS(=O)(=O)c2ccc(Cl)c(C(F)(F)F)c2)c1` [CCX-140, reference compound], the IC50 was 24 nM.

Still in this assay, the particulars now being: Table 3; CCR2 inhibition; read-out: mean IC50.
For the compound “CCL2 variant, N-terminal (Nle)PDWNRAPVT (SEQ ID NO: 35), human CCL2 Met64Nle core [CCL2-M64Nle-NGS-MEO-1]”, the IC50 came out at 167 nM.

Consider “CCL2 variant, N-terminal AFSIMQAPVT (SEQ ID NO: 15), human CCL2 Met64Nle core [CCL2-M64Nle-1P8]”, for which the concentration for half-maximal inhibition (IC50) came to 12 nM.

Take “CCL2 variant, N-terminal APQWAAAT, positions 1-2 absent (SEQ ID NO: 32), human CCL2 Met64Nle core [CCL2-M64Nle-2P1]”: the IC50 was found to be 89.3 nM.

In the case of “CCL2 variant, N-terminal FP(Nle)DGWAPVT (SEQ ID NO: 10), human CCL2 Met64Nle core [CCL2-M64Nle-2P6]”, the IC50 is 2.2 nM.

The assay is the same for the next values; noted with them: Table 4; CCR2 inhibition; read-out: mean IC50.
For “CCL2 variant, N-terminal FP(Nle)DGWGPGV (SEQ ID NO: 144), human CCL2 11-76 Met64Nle core (FP[Nle]DGWGPGV; also: followed by human CCL2 11-76 core with Met64Nle) [4P24-CCL2]”, the IC50 came to 1.65 nM.

“CCL2 variant, N-terminal FP(Nle)DGWGSRV (SEQ ID NO: 102), human CCL2 11-76 Met64Nle core (FP[Nle]DGWGSRV; also: followed by human CCL2 11-76 core with Met64Nle) [4P2-CCL2]”: the IC50 is 2.72 nM.

For the compound “CCL2 variant, N-terminal FP(Nle)DGWHPLV (SEQ ID NO: 132), human CCL2 11-76 Met64Nle core (FP[Nle]DGWHPLV; also: followed by human CCL2 11-76 core with Met64Nle) [4P18-CCL2]”, the 50% inhibitory concentration (IC50) worked out at 0.585 nM.

On to “CCL2 variant, N-terminal FP(Nle)DGWQGGV (SEQ ID NO: 122), human CCL2 11-76 Met64Nle core (FP[Nle]DGWQGGV; also: followed by human CCL2 11-76 core with Met64Nle) [4P13-CCL2]”, for which the IC50 is 0.534 nM.

Turning to “CCL2 variant, N-terminal FP(Nle)DGWRGET (SEQ ID NO: 110), human CCL2 11-76 Met64Nle core (FP[Nle]DGWRGET; also: followed by human CCL2 11-76 core with Met64Nle) [4P6-CCL2]”, the IC50 is 1.45 nM.

Turning to “CCL2 variant, N-terminal FP(Nle)DGWRGGV (SEQ ID NO: 116), human CCL2 11-76 Met64Nle core (FP[Nle]DGWRGGV; also: followed by human CCL2 11-76 core with Met64Nle) [4P9-CCL2]”, the half-inhibitory concentration (IC50) was 1.65 nM.

“CCL2 variant, N-terminal FP(Nle)DGWRGLT (SEQ ID NO: 106), human CCL2 11-76 Met64Nle core (FP[Nle]DGWRGLT; also: followed by human CCL2 11-76 core with Met64Nle) [4P4-CCL2]”: the IC50 was 2.38 nM.

As for “CCL2 variant, N-terminal FP(Nle)DGWRGLV (SEQ ID NO: 136), human CCL2 11-76 Met64Nle core (FP[Nle]DGWRGLV; also: followed by human CCL2 11-76 core with Met64Nle) [4P20-CCL2]”, the half-maximal inhibitory concentration (IC50) is 0.93 nM.

Regarding “CCL2 variant, N-terminal FP(Nle)DGWRGQV (SEQ ID NO: 128), human CCL2 11-76 Met64Nle core (FP[Nle]DGWRGQV; also: fused to human CCL2 11-76 core with Met64Nle) [4P16-CCL2]”, the IC50 was 0.82 nM.

In the case of “CCL2 variant, N-terminal FP(Nle)DGWRPLV (SEQ ID NO: 140), human CCL2 11-76 Met64Nle core (FP[Nle]DGWRPLV; also: fused to human CCL2 11-76 core with Met64Nle) [4P22-CCL2]”, the IC50 came to 0.759 nM.

For “CCL2 variant, N-terminal FP(Nle)DGWRPRQ (SEQ ID NO: 108), human CCL2 11-76 Met64Nle core (FP[Nle]DGWRPRQ; also: fused to human CCL2 11-76 core with Met64Nle) [4P5-CCL2]”, the half-maximal inhibitory concentration (IC50) is 65.8 nM.

Regarding “CCL2 variant, N-terminal FP(Nle)DGWRPRT (SEQ ID NO: 142), human CCL2 11-76 Met64Nle core (FP[Nle]DGWRPRT; also: fused to human CCL2 11-76 core with Met64Nle) [4P23-CCL2]”, the IC50 is 1.02 nM.

As to “CCL2 variant, N-terminal FP(Nle)DGWVSRT (SEQ ID NO: 124), human CCL2 11-76 Met64Nle core (FP[Nle]DGWVSRT; also: fused to human CCL2 11-76 core with Met64Nle) [4P14-CCL2]”, the IC50 turned out to be 0.965 nM.

“CCL2 variant, N-terminal FTNPTWAPLQ (SEQ ID NO: 83), human CCL2 11-76 Met64Nle core [3P8-CCL2]”: the IC50 was 0.892 nM.

Turning to “CCL2 variant, N-terminal FTNPTWATHV (SEQ ID NO: 82), human CCL2 11-76 Met64Nle core [3P7-CCL2]”, the IC50 came out at 1.47 nM.

Turning to “CCL2 variant, N-terminal FTNPTWDAFT (SEQ ID NO: 76), human CCL2 11-76 Met64Nle core [3P1-CCL2]”, the IC50 was determined as 0.655 nM.

As for “CCL2 variant, N-terminal FTNPTWDAGV (SEQ ID NO: 97), human CCL2 11-76 Met64Nle core [3P22-CCL2]”, the IC50 came to 1 nM.

On to “CCL2 variant, N-terminal FTNPTWDAQV (SEQ ID NO: 77), human CCL2 11-76 Met64Nle core [3P2-CCL2]”, for which the IC50 is 0.883 nM.

In the case of “CCL2 variant, N-terminal FTNPTWDAVT (SEQ ID NO: 89), human CCL2 11-76 Met64Nle core [3P14-CCL2]”, the IC50 stood at 0.594 nM.

As for “CCL2 variant, N-terminal FTNPTWDHFV (SEQ ID NO: 88), human CCL2 11-76 Met64Nle core [3P13-CCL2]”, the IC50 amounted to 0.437 nM.

With “CCL2 variant, N-terminal FTNPTWDPFT (SEQ ID NO: 95), human CCL2 11-76 Met64Nle core [3P20-CCL2]”, the half-maximal inhibitory concentration (IC50) stood at 0.718 nM.

Regarding “CCL2 variant, N-terminal FTNPTWDQFT (SEQ ID NO: 86), human CCL2 11-76 Met64Nle core [3P11-CCL2]”, the IC50 came to 0.703 nM.

As to “CCL2 variant, N-terminal FTNPTWDRFT (SEQ ID NO: 87), human CCL2 11-76 Met64Nle core (not fully specified (C-terminus); also: followed C-terminally by human CCL2 11-76 core with Met64Nle) [3P12-CCL2]”, the IC50 worked out at 0.625 nM.

As for “CCL2 variant, N-terminal FTNPTWDSFS (SEQ ID NO: 84), human CCL2 11-76 Met64Nle core (not fully specified (C-terminus); also: followed C-terminally by human CCL2 11-76 core with Met64Nle) [3P9-CCL2]”, the IC50 turned out to be 0.585 nM.

As for “CCL2 variant, N-terminal FTNPTWDSVT (SEQ ID NO: 98), human CCL2 11-76 Met64Nle core (not fully specified (C-terminus); also: followed C-terminally by human CCL2 11-76 core with Met64Nle) [3P23-CCL2]”, the IC50 turned out to be 0.678 nM.

For the compound “CCL2 variant, N-terminal FTNPTWDTGT (SEQ ID NO: 96), human CCL2 11-76 Met64Nle core (not fully specified (C-terminus); also: followed C-terminally by human CCL2 11-76 core with Met64Nle) [3P21-CCL2]”, the IC50 was found to be 1.28 nM.

As for “CCL2 variant, N-terminal FTNPTWDTQV (SEQ ID NO: 79), human CCL2 11-76 Met64Nle core (not fully specified (C-terminus); also: followed C-terminally by human CCL2 11-76 core with Met64Nle) [3P4-CCL2]”, the 50% inhibitory concentration (IC50) is 0.646 nM.

In the case of “CCL2 variant, N-terminal FTNPTWKPST (SEQ ID NO: 90), human CCL2 11-76 Met64Nle core (not fully specified (C-terminus); also: followed C-terminally by human CCL2 11-76 core with Met64Nle) [3P15-CCL2]”, the IC50 was determined as 1.53 nM.

Still in this assay, the particulars now being: compiled data from four experiments.
As for `CC(C)(C)N1CCN[C@@H](C(=O)N2CCN(C(=O)Nc3ccc(Cl)c(F)c3)CC2)C1` [AZD2423, reference compound], the “fold less potent than 1P2-CCL2” value turned out to be 3.53 fold.

`CC(=O)N[C@@H]1C[C@H](NC(C)(C)C)CC[C@@H]1N1CC[C@H](Nc2ncnc3cc(C(C)(C)C)nn23)C1=O` [BMS-813160, reference compound]: the “fold less potent than 1P2-CCL2” value stood at 5.76 fold.

Consider `Cc1cnc(C(=O)c2ncnc3[nH]ccc23)c(NS(=O)(=O)c2ccc(Cl)c(C(F)(F)F)c2)c1` [CCX-140, reference compound], for which the “fold less potent than 1P2-CCL2” value amounted to 14.12 fold.

By IC50 is commonly meant the midpoint of a concentration-inhibition curve.
